Experiment [1] concerns the target SARS-CoV-2 RBD (SARS-CoV-2, Wuhan-Hu-1 (assumed), UniProt P0DTC2). Kind of experiment: ELISA.
Experiment [2] deals with S protein C-terminal S2 region expressed on HEK293T cells (SARS-CoV-2, Wuhan-Hu-1, UniProt P0DTC2). The experiment is described as follows: flow cytometry on cells.
Experiment [3] has as its target recombinant stabilized trimeric prefusion ectodomain of the SARS-CoV-2 S protein (S6P_(ecto)) (SARS-CoV-2, UniProt P0DTC2).

Data on seven molecules can be found in paper PMC8352653 (Cell Reports, 2021).

Positions count from the first letter of the chain named.

B1: COV2-2531 (antibody, V domains shown)
VH: QVQLQESGPGLVKPSETLSLTCSVSGGSIRSYFWNWVRQPPGKGLEWIGYIYYSGSTNYKPSFKSRVTISLDTSKNQISLKLSSVTAADTAVYYCARATWLRDAFGIWGQGTMVTVSS
VL: NFMLTQPHSVSESPGKTVTISCTGNSGSIASNYVQWYQQRPGSAPTTVIYEDSQRPSGVPDRFSGSIDSSSNSASLTISGLKTEDEADYYCQSFDSGNVVFGGGTKLTVL
Turning to B1, the binding result in experiment [1] is recorded as “binds”.

B2: C126 (antibody, V domains shown)
VH: QVQLQESGPGLVKPSETLSLSCAVSGGSIGSYFWSWIRQPPGKGLEWIGYLHYSGSTNYNPSLKSRVTISVDTSKNQFSLKLSSVTAADTAVYYCARLQWLRGAFDIWGQGTMVTVSS
VL: B1 VL with N25S, Y50N, S53N, F94Y, G97S, V99L
Take B2: the binding result in experiment [1] was “binds”.

B3: group 3 germline revertant (antibody, V domains shown)
VH: B1 VH with S23T, R30S, F33Y, N35S, V37I, K60N, F63L, L71V, I78F
VL: B1 VL with N25S, S53N, F94Y, G97S
On to B3, for which the binding result in experiment [1] is “binds”.

B4: COV2-2002 (antibody, V domains shown)
VH: EVQLVESGGGLVQPGGSLRLSCAASGFTFSFYWMSWVRQAPGKGLEWVANIKQDGSEKYYVDSVKGRSTISRDNAKNSLYLQMNSLRAEDTAVYYCARVGSSSWYFDYWGQGTLVTVSS
VL: not shown
For the molecule B4, the binding result in experiment [2] is “binds”.

B5: COV2-2333 (antibody, V domains shown)
VH: B4 VH with F31I, E46Q, G55A, S68F, V99L, S101G, Y105H
VL: SYELTQPPSVSVSPGQTASITCSGDKLGDKYSSWYQQKPGQSPVLVIYEDTKRPSGIPERFSGSNSGNTATLTISGTQAMDEADYYCQAWSSSTAVFGGGTKLTVL
As to B5, the binding result in experiment [2] is on record as “binds”.

B6: COV2-2164 (antibody, V domains shown)
VH: QVQLVQSGAEVKKPGSSVKVSCKASGGTFSSYAISWVRQAPGQGLEWMGGIIPIFGTANYAQKFQGRVTITADESTSTGYMQLSSLRFEDTAVYYCARTSHYDSSGSYFEYWGQGTLVTVSS
VL: EIVLTQSPATLSLSPGERATLSCRASQSVSSYLAWYQQKPGQAPRLLIYDASNRATGIPARFSGSGSGTDFTLTISSLEPEDFAVYYCHKRSNWPPSLTFGGGTKVEIK
Regarding B6, the binding result in experiment [3] is listed as “binds”.

B7: CnC2t1p1_B10 (antibody, V domains shown)
VH: B6 VH with E74K, G79A, Q82E, F88S, T99V, H101G, S107Y, Y108W, F109G, E110D
VL: B6 VL with H89Q, K90Q, S97A
Take B7: the binding result in experiment [2] was “binds”.
